± gives the standard deviation of the averaged measurements.
Experiment: total protein half-life in vivo (active degradation + dilution); higher = more stable protein
[1] = E. coli NCM3722 delta-clpP delta-lon delta-hslV, growth: N-lim chemostat, doubling time 6 h
[2] = E. coli NCM3722 delta-clpP, growth: N-lim chemostat, doubling time 6 h
[3] = E. coli NCM3722 delta-hslV, growth: N-lim chemostat, doubling time 6 h
[4] = E. coli NCM3722 delta-lon, growth: N-lim chemostat, doubling time 6 h
[5] = E. coli NCM3722 delta-smpB, growth: N-lim chemostat, doubling time 6 h
[6] = wild type E. coli NCM3722, growth: C-lim chemostat, doubling time 3 h
[7] = wild type E. coli NCM3722, growth: C-lim chemostat, doubling time 6 h
[8] = wild type E. coli NCM3722, growth: C-lim chemostat, doubling time 12 h
[9] = wild type E. coli NCM3722, growth: N-lim chemostat, doubling time 6 h
[10] = wild type E. coli NCM3722, growth: N-lim chemostat, doubling time 12 h
[11] = wild type E. coli NCM3722, growth: P-lim chemostat, doubling time 6 h
[12] = wild type E. coli NCM3722, growth: P-lim chemostat, doubling time 12 h

Sequence: MHLRHLFSSRLRGSLLLGSLLVVSSFSTQAAEEMLRKAVGKGAYEMAYSQQENALWLATSQSRKLDKGGVVYRLDPVTLEVTQAIHNDLKPFGATINNTTQTLWFGNTVNSAVTAIDAKTGEVKGRLVLDDRKRTEEVRPLQPRELVADDATNTVYISGIGKESVIWVVDGGNIKLKTAIQNTGKMSTGLALDSEGKRLYTTNADGELITIDTADNKILSRKKLLDDGKEHFFINISLDTARQRAFITDSKAAEVLVVDTRNGNILAKVAAPESLAVLFNPARNEAYVTHRQAGKVSVIDAKSYKVVKTFDTPTHPNSLALSADGKTLYVSVKQKSTKQQEATQPDDVIRIAL
- total protein half-life in vivo [1]: 5.6 ± 0.52 h
- total protein half-life in vivo [2]: 5.877 ± 0.042 h
- total protein half-life in vivo [3]: 5.99 ± 0.71 h
- total protein half-life in vivo [4]: 5.44 ± 0.31 h
- total protein half-life in vivo [5]: 5.53 ± 0.97 h
- total protein half-life in vivo [6]: 3.14 ± 0.065 h
- total protein half-life in vivo [7]: 6.05 ± 0.6 h
- total protein half-life in vivo [8]: 12.2 ± 1.1 h
- total protein half-life in vivo [9]: 5.63 ± 0.093 h
- total protein half-life in vivo [10]: 11.5 ± 1.1 h
- total protein half-life in vivo [11]: 5.44 ± 0.17 h
- total protein half-life in vivo [12]: 11.4 ± 0.18 h

Sequence: MHPMLNIAVRAARKAGNLIAKNYETPDAVEASQKGSNDFVTNVDKAAEAVIIDTIRKSYPQHTIITEESGELEGTDQDVQWVIDPLDGTTNFIKRLPHFAVSIAVRIKGRTEVAVVYDPMRNELFTATRGQGAQLNGYRLRGSTARDLDGTILATGFPFKAKQYATTYINIVGKLFNECADFRRTGSAALDLAYVAAGRVDGFFEIGLRPWDFAAGELLVREAGGIVSDFTGGHNYMLTGNIVAGNPRVVKAMLANMRDELSDALKR [P0ADG4]
- total protein half-life in vivo [1]: 5.94 ± 0.37 h
- total protein half-life in vivo [2]: 6.49 ± 1.6 h
- total protein half-life in vivo [3]: 5.2 ± 0.23 h
- total protein half-life in vivo [5]: 5.39 ± 0.47 h
- total protein half-life in vivo [6]: 3.01 ± 0.21 h
- total protein half-life in vivo [7]: 6.17 ± 0.55 h
- total protein half-life in vivo [8]: 12 ± 0.71 h
- total protein half-life in vivo [9]: 5.53 ± 0.19 h
- total protein half-life in vivo [10]: 10.2 ± 0.39 h
- total protein half-life in vivo [11]: 6.063 ± 0.06 h
- total protein half-life in vivo [12]: 14 ± 1 h

Sequence: MHSLQRKVLRTICPDQKGLIARITNICYKHELNIVQNNEFVDHRTGRFFMRTELEGIFNDSTLLADLDSALPEGSVRELNPAGRRRIVILVTKEAHCLGDLLMKANYGGLDVEIAAVIGNHDTLRSLVERFDIPFELVSHEGLTRNEHDQKMADAIDAYQPDYVVLAKYMRVLTPEFVARFPNKIINIHHSFLPAFIGARPYHQAYERGVKIIGATAHYVNDNLDEGPIIMQDVIHVDHTYTAEDMMRAGRDVEKNVLSRALYKVLAQRVFVYGNRTIIL
- total protein half-life in vivo [1]: 5.61 ± 0.48 h
- total protein half-life in vivo [2]: 5.19 ± 0.2 h
- total protein half-life in vivo [3]: 4.71 ± 0.23 h
- total protein half-life in vivo [4]: 5.71 ± 1.4 h
- total protein half-life in vivo [5]: 4.94 ± 0.19 h
- total protein half-life in vivo [6]: 2.78 ± 0.4 h
- total protein half-life in vivo [7]: 6.27 ± 1.3 h
- total protein half-life in vivo [8]: 10.5 ± 0.78 h
- total protein half-life in vivo [9]: 4.8 ± 0.3 h
- total protein half-life in vivo [10]: 9.08 ± 0.9 h
- total protein half-life in vivo [11]: 5.77 ± 0.26 h
- total protein half-life in vivo [12]: 12.6 ± 0.46 h

Sequence: MHTSELLKHIYDINLSYLLLAQRLIVQDKASAMFRLGINEEMATTLAALTLPQMVKLAETNQLVCHFRFDSHQTITQLTQDSRVDDLQQIHTGIMLSTRLLNDVNQPEEALRKKRA [P0A8S9]
- total protein half-life in vivo [1]: 6.51 ± 0.47 h
- total protein half-life in vivo [6]: 0.799 h

Sequence: MHVFDNNGIELKAECSIGEEDGVYGLILESWGPGDRNKDYNIALDYIIERLVDSGVSQVVVYLASSSVRKHMHSLDERKIHPGEYFTLIGNSPRDIRLKMCGYQAYFSRTGRKEIPSGNRTKRILINVPGIYSDSFWASIIRGELSELSQPTDDESLLNMRVSKLIKKTLSQPEGSRKPVEVERLQKVYVRDPMVKAWILQQSKGICENCGKNAPFYLNDGNPYLEVHHVIPLSSGGADTTDNCVALCPNCHRELHYSKNAKELIEMLYVNINRLQK
- total protein half-life in vivo [1]: 5.51 h
- total protein half-life in vivo [3]: 4.2 h
- total protein half-life in vivo [4]: 5.87 h
- total protein half-life in vivo [5]: 4.87 h
- total protein half-life in vivo [9]: 4.8 ± 0.71 h
- total protein half-life in vivo [10]: 8.5 ± 1.1 h
- total protein half-life in vivo [12]: 10.2 h

Sequence: MHVLNILWVVFGIGLMLVLNLKFKINSMVALLVAALSVGMLAGMDLMSLLHTMKAGFGNTLGELAIIVVFGAVIGKLMVDSGAAHQIAHTLLARLGLRYVQLSVIIIGLIFGLAMFYEVAFIMLAPLVIVIAAEAKIPFLKLAIPAVAAATTAHSLFPPQPGPVALVNAYGADMGMVYIYGVLVTIPSVICAGLILPKFLGNLERPTPSFLKADQPVDMNNLPSFGVSILVPLIPAIIMISTTIANIWLVKDTPAWEVVNFIGSSPIAMFIAMVVAFVLFGTARGHDMQWVMNAFESAVKSIAMVILIIGAGGVLKQTIIDTGIGDTIGMLMSHGNISPYIMAWLITVLIRLATGQGVVSAMTAAGIISAAILDPATGQLVGVNPALLVLATAAGSNTLTHINDASFWLFKGYFDLSVKDTLKTWGLLELVNSVVGLIIVLIISMVA [P0AC94]
- total protein half-life in vivo [6]: 2.92 ± 1.2 h
- total protein half-life in vivo [7]: 6.04 ± 0.1 h
- total protein half-life in vivo [8]: 13.5 h

Sequence: MIAELFTNNALNLVIIFGSCAALILMSFWFRRGNRKRKGFLFHAVQFLIYTIIISAVGSIINYVIENYKLKFITPGVIDFICTSLIAVILTIKLFLLINQFEKQQIKKGRDITSARIMSRIIKITIIVVLVLLYGEHFGMSLSGLLTFGGIGGLAVGMAGKDILSNFFSGIMLYFDRPFSIGDWIRSPDRNIEGTVAEIGWRITKITTFDNRPLYVPNSLFSSISVENPGRMTNRRITTTIGLRYEDAAKVGVIVEAVREMLKNHPAIDQRQTLLVYFNQFADSSLNIMVYCFTKTTVWAEWLAAQQDVYLKIIDIVQSHGADFAFPSQTLYMDNITPPEQGR [P0AEB5]
- total protein half-life in vivo [1]: 6.12 ± 0.49 h
- total protein half-life in vivo [2]: 6.41 ± 0.17 h
- total protein half-life in vivo [3]: 6.48 ± 0.5 h
- total protein half-life in vivo [4]: 6.71 ± 0.27 h
- total protein half-life in vivo [5]: 6.07 ± 0.36 h
- total protein half-life in vivo [6]: 3.02 ± 0.1 h
- total protein half-life in vivo [7]: 6.34 ± 0.4 h
- total protein half-life in vivo [8]: 11.9 ± 0.12 h
- total protein half-life in vivo [9]: 6.02 ± 0.14 h
- total protein half-life in vivo [10]: 12.7 ± 1.4 h
- total protein half-life in vivo [11]: 5.86 ± 0.78 h

Sequence: MIARWFWREWRSPSLLIVWLALSLAVACVLALGNISDRMEKGLSQQSREFMAGDRALRSSREVPQAWLEEAQKRGLKVGKQLTFATMTFAGDTPQLANVKAVDDIYPMYGDLQTNPPGLKPQAGSVLLAPRLMALLNLKTGDTIDVGDATLRIAGEVIQEPDSGFNPFQMAPRLMMNLADVDKTGAVQPGSRVTWRYKFGGNENQLDGYEKWLLPQLKPEQRWYGLEQDEGALGRSMERSQQFLLLSALLTLLLAVAAVAVAMNHYCRSRYDLVAILKTLGAGRAQLRKLIVGQWLMVLTLSAVTGGAIGLLFENVLMVLLKPVLPAALPPASLWPWLWALGTMTVISLLVGLRPYRLLLATQPLRVLRNDVVANVWPLKFYLPIVSVVVVLLLAGLMGGSMLLWAVLAGAVVLALLCGVLGWMLLNVLRRMTLKSLPLRLAVSRLLRQPWSTLSQLSAFSLSFMLLALLLVLRGDLLDRWQQQLPPESPNYFLINIATEQVAPLKAFLAEHQIVPESFYPVVRARLTAINDKPTEGNEDEALNRELNLTWQNTRPDHNPIVAGNWPPKADEVSMEEGLAKRLNVALGDTVTFMGDTQEFRAKVTSLRKVDWESLRPNFYFIFPEGALDGQPQSWLTSFRWENGNGMLTQLNRQFPTISLLDIGAILKQVGQVLEQVSRALEVMVVLVTACGMLLLLAQVQVGMRQRHQELVVWRTLGAGKKLLRTTLWCEFAMLGFVSGLVAAIGAETALAVLQAKVFDFPWEPDWRLWIVLPCSGALLLSLFGGWLGARLVKGKALFRQFAG
- total protein half-life in vivo [1]: 6.27 ± 0.098 h
- total protein half-life in vivo [3]: 6.06 ± 0.42 h
- total protein half-life in vivo [4]: 6.45 ± 0.35 h
- total protein half-life in vivo [5]: 6.86 ± 0.47 h
- total protein half-life in vivo [6]: 3.48 ± 0.66 h
- total protein half-life in vivo [7]: 6.92 ± 1.4 h
- total protein half-life in vivo [9]: 6.21 ± 1.2 h
- total protein half-life in vivo [10]: 13.3 ± 1.4 h
- total protein half-life in vivo [11]: 5.85 ± 0.5 h
- total protein half-life in vivo [12]: 10.5 ± 0.91 h

Reference: the supplement of paper PMC11246515
